In paper PMC11193732 (Scientific Reports, 2024) one finds binding result and Kd data, which are given here for five molecules.

Assay [1] concerns the target T1, 6xHis-tagged recombinant SARS-CoV-2 (2019-nCoV) spike protein S1 + S2 extracellular domain (Severe acute respiratory syndrome …, UniProt P0DTC2).
T1 construct: SARS-CoV-2 (2019-nCoV) spike protein, S1 + S2 extracellular domain; lacks the cytoplasmic region; retains the S1/S2 cleavage regions; No catalogue number or limits are printed; also called recombinant S1 + S2; recombinant spike protein
Nature of the assay: ELISA; […] (40 ng/mL, 50 μL) […]. The conditions noted are these: one partner purified. Background: In an ELISA, binding on a coated surface is turned into a signal by an enzyme label.

The target in assay [2] is T2, spike protein (S1 + S2) of SARS-CoV-2 WT (Wuhan strain) (SARS-CoV-2, Wuhan (WT), UniProt P0DTC2).
T2 construct: uncleaved S1 + S2 spike protein of SARS-CoV-2 WT (Wuhan strain), as made by the virus; also called original Wuhan strain; the coronavirus
Nature of the assay: ELISA; wells coated with 1 × 10^5 heat-inactivated virus in PBS; 5G2 mAb added; anti-mouse IgG-F(ab')2-HRP, A450. The conditions noted are these: one partner purified.

For assay [3], the target named is S2 subunit of the SARS-CoV-2 WT spike protein in infected Vero cells (SARS-CoV-2, Wuhan (WT), UniProt P0DTC2). Nature of the assay: western blot. The conditions noted are these: one partner purified.
In assay [4] the target is T3, SARS-CoV-2 spike 1099-1112 peptide (GTH peptide) (Severe acute respiratory syndrome …).
T3 construct: SARS-CoV-2 spike protein, residues 1099-1112, between HR1 and HR2 of the S2 domain
T3 chain: GTHWFVTQRNFYEP
Put plainly: SPR. The conditions noted are these: both partners purified.

The target in assay [5] is T4, 6xHis-tagged recombinant SARS-CoV-2 (2019-nCoV) spike S2 extracellular domain (SARS-CoV-2, Wuhan (2019-nCoV), UniProt P0DTC2).
T4 construct: SARS-CoV-2 (2019-nCoV) spike protein, S2 extracellular domain; lacks the cytoplasmic region; No catalogue number or limits are printed; also called recombinant S2; S2 subunit of the recombinant spike protein
Put plainly: western blot; recombinant spike proteins separated by SDS-PAGE on nitrocellulose; 5G2 mAb 0.2 μg/mL, RT 1 h; anti-mouse IgG-F(ab')2-HRP. Conditions: both partners purified.

Assay [6] has as its target T1, 6xHis-tagged recombinant SARS-CoV-2 …. Put plainly: western blot; recombinant spike proteins separated by SDS-PAGE on nitrocellulose; MBP-sc5G2-6xHis 0.8 μg/mL, RT 1 h; anti-MBP antibody and anti-mouse IgG-F(ab')2-HRP. The conditions noted are these: both partners purified.
For assay [7], the target named is T4, 6xHis-tagged recombinant SARS-CoV-2 …. The description is as above. The conditions noted are these: both partners purified.
For assay [8], the target named is T2, spike protein (S1 + S2) of SARS-CoV-2 …. Put plainly: western blot. Conditions: one partner purified. For orientation: Immunoblotting shows a protein as a band on a membrane.
Assay [9] concerns the target T5, recombinant S2 subunit of the spike protein without 6xHis (SARS-CoV-2, Wuhan (WT), UniProt P0DTC2).
T5 construct: also called r-S2; recombinant S2 without 6xHis
Nature of the assay: western blot.

The target of assay [10] is T1, 6xHis-tagged recombinant SARS-CoV-2 …. Put plainly: western blot. The conditions noted are these: one partner purified.
The target in assay [11] is T4, 6xHis-tagged recombinant SARS-CoV-2 …. Nature of the assay: western blot. Conditions: one partner purified.

B1: 5G2 monoclonal antibody (antibody, V domains shown)
VH: QIQLVQSGPELKKPGATVKISCKASGYTFTNYGMHWLKQTPGKVLKWMGLINTYTGEPKYADDFKGRFAFSLETSASTAYLQINNLRSEDTATYFCARKGLGLRPPMDSWGQGTSVTVSS
VL: QIVLSQSPAILSASPGEKVTMTCRASSSVNYMHWCQQKPGSSPKPLIHGTSNLASGVPGRFSGSGSGTSYSLTISRVEAEDAATYYCHQWNSYPLTFGAGTRLEL
notes: also called 5G2 mAb; mAb 5G2
Take B1: the binding result in assay [1], in assay [2], in assay [3] and in assay [5] was “binds” each time. Besides, the affinity in assay [4], expressed as Kd, was 0.11 nM.

B2: MBP-sc5G2-6xHis produced by HEK293FT cells (scFv, V domains shown)
VH: B1 VH
VL: B1 VL
notes: as the heavy chain variable region of m1; as the light chain variable region of m1; The MBP cDNA came from the pMAL-p2 vector; not shown: MBP, N-terminal, kept; 6xHis, C-terminal, kept
For the molecule B2, the binding result in assay [6], in [7] and in [8] was “binds” in each case.

B3: MBP-sc5G2-6xHis produced by E. coli (refolded) (scFv, V domains shown)
VH: B1 VH
VL: B1 VL
notes: as the heavy chain variable region of m1; as the light chain variable region of m1; Same cDNA as m3, in pET22b; not shown: MBP, N-terminal, kept; 6xHis, C-terminal, kept
On to B3, for which the binding result in assay [6], in [7] and in assay [8] was “binds” each time.

B4: sc5G2-6xHis produced by E. coli (refolded) (scFv, V domains shown)
VH: B1 VH
VL: B1 VL
notes: as the heavy chain variable region of m1; as the light chain variable region of m1; also called MBP-free sc5G2
In the case of B4, the binding result in assay [8] and in assay [9] was “binds” in each case.

B5: recombinant 5G2 (cloned heavy and light chains fused to mouse IgG constant γ1 and κ chains) (antibody, V domains shown)
VH: B1 VH
VL: B1 VL
notes: as the heavy chain variable region of m1; mouse IgG constant γ1 chain; as the light chain variable region of m1; mouse immunoglobulin constant κ chain; Mouse IgG1 kappa; also called recombinant heavy and light chains of 5G2; 293FT + cDNA
As to B5, the binding result in assay [10] and in [11] was “binds” each time.
